Test results: patent US20190177376A1

Target: human IgG (human)
Assay: ELISA, IgG coated on plate, detection with Strep-Tactin-HRP

Substance: domain B (from UniProt P38507 212-269)
- Kd: 3.1 nM
